The target of series [1] is His6-VapB26 antitoxin (NMR) (Mycobacterium tuberculosis, UniProt O53778 1-71). The experiment in a line: NMR.
The target in series [2] is T1, VapB26 antitoxin (ITC/EMSA) (Mycobacterium tuberculosis, UniProt O53778 1-71). The experiment in a line: ITC.
Series [3] concerns the target T1, VapB26 antitoxin (ITC/EMSA). The experiment in a line: EMSA.
The target is the same in series [4]. The experiment in a line: ITC. This is another data set of the same source.

Data on four molecules can be found in paper PMC5737657.

T1 sequence (O53778 whole entry): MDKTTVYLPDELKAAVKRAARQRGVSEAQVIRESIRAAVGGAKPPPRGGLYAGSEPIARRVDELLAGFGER
Sequence of His6-VapB26 antitoxin (NMR) (O53778 whole entry): as above

B1: control DNA 'X' (dsDNA)
DNA 1: GATTTTTTTTGATTTTTTT
DNA 2: AAAAAAATCAAAAAAAATC
Take B1: the binding result in series [1] and in series [2] was “no binding” each time.

B2: palindromic DNA 'a' (dsDNA)
DNA 1: TATTTTAATAACTTAAAAGT
DNA 2: ACTTTTAAGTTATTAAAATA
For the molecule B2, the binding result in series [3] is on record as “no binding”.

B3: palindromic DNA 'b' (dsDNA)
DNA 1: TAATAGAATAATAAGTATCACTCCTTTA
DNA 2: TAAAGGAGTGATACTTATTATTCTATTA
Turning to B3, the binding result in series [3] was “no binding”.

B4: vapBC26 promoter DNA (19 bp) (dsDNA)
DNA 1: TTCGCGGCTACGCCGACAA
DNA 2: TTGTCGGCGTAGCCGCGAA
Turning to B4, in series [4], the affinity, expressed as Kd, was 4.69 ± 0.81 µM.
